Assay results as given in US20230257470A1 (published 2023).
Positions count from the first letter of the chain named. Names and notes keep the numbering of the source.

T1: human FcγRIIa(H) (allotype H131) (human, UniProt P12318 36-217)
T1 construct: Soluble analyte in SPR; also called hFcgRIIa(H); FcgRIIaH
T1 sequence: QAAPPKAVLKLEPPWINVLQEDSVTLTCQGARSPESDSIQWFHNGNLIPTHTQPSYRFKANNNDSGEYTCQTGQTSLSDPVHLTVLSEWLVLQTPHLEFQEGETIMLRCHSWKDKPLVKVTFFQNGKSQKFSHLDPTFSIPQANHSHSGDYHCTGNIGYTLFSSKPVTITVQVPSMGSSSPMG

T2: human FcγRIIa(R) (allotype R131) (human, UniProt P12318 36-217)
T2 construct: Soluble analyte in SPR; also called hFcgRIIa(R); FcgRIIaR
T2 chain: T1 sequence with H133R

T3: human FcγRIIb (human, UniProt P31994 43-217, limits assumed)
T3 construct: Soluble analyte in SPR; also called hFcgRIIb; FcgRIIb
T3 sequence: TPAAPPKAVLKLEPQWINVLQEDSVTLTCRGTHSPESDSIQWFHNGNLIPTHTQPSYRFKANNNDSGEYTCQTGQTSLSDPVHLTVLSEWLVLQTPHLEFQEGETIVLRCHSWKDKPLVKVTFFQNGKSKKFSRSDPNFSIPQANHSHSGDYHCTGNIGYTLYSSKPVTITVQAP

T4: human FcγRIIb (human, UniProt P31994 43-217, limits assumed)
T4 construct: also called FcyRIfb; FcγIIB
T4 sequence: T3 sequence

T5: human FcγRIIa type H (human, UniProt P12318 36-217)
T5 construct: also called FcyRIIaH; FcγRIIa(H)
T5 sequence: T1 sequence

B1: GpH7-B3 variant P329H / GpL16-k0 (antibody, human IgG1)
heavy: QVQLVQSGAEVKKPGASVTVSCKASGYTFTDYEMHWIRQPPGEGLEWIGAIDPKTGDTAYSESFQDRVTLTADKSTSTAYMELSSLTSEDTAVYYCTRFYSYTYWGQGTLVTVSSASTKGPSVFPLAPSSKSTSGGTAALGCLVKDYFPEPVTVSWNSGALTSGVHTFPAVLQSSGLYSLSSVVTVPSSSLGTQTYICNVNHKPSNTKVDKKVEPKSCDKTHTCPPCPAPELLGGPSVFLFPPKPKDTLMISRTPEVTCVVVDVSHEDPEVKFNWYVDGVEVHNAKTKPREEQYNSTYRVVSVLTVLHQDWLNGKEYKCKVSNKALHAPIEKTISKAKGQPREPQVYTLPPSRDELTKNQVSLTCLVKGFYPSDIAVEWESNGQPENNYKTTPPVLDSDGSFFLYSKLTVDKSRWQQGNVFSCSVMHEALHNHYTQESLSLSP
light: DIVMTQSPLSLPVTPGEPASISCQASESLVHSNRNTYLHWYLQKPGQSPQLLIYKVSNRFSGVPDRFSGSGSGTDFTLKISRVEAEDVGVYYCSQNTHVPPTFGQGTKVEIE
notes: Anti-glypican-3 human IgG1 with B3 constant region (G1d with K439E); position by EU numbering
B2: GpH7-B3 variant A330P / GpL16-k0 (antibody, human IgG1)
heavy: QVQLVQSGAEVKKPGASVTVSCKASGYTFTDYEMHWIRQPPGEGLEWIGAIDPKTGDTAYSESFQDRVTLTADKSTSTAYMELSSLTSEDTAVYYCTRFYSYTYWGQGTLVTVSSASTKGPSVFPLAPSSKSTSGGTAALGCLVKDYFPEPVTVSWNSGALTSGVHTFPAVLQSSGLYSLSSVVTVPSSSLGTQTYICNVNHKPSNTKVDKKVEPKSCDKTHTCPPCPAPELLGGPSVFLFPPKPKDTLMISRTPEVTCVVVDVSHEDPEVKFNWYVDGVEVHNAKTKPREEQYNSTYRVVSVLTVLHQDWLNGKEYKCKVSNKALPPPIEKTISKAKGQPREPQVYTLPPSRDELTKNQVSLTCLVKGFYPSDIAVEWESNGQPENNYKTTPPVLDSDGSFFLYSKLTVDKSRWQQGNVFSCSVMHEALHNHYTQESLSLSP
light: B1 light
notes: Anti-glypican-3 human IgG1 with B3 constant region; position by EU numbering
B3: GpH7-B3 variant P329G / GpL16-k0 (antibody, human IgG1)
heavy: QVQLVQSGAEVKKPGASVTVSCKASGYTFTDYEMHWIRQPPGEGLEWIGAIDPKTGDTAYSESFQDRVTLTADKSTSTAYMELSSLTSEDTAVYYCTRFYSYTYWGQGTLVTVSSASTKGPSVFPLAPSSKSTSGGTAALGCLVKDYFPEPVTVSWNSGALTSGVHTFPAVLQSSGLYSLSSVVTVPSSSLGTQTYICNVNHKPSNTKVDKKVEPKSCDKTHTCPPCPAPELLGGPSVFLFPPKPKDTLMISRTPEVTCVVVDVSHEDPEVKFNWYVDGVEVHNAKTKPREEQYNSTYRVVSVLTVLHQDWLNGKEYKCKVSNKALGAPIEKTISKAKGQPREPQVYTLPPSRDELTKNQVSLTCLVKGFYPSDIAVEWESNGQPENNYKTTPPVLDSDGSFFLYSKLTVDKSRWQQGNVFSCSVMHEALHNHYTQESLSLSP
light: B1 light
notes: as for B2
B4: GpH7-B3 variant I332K / GpL16-k0 (antibody, human IgG1)
heavy: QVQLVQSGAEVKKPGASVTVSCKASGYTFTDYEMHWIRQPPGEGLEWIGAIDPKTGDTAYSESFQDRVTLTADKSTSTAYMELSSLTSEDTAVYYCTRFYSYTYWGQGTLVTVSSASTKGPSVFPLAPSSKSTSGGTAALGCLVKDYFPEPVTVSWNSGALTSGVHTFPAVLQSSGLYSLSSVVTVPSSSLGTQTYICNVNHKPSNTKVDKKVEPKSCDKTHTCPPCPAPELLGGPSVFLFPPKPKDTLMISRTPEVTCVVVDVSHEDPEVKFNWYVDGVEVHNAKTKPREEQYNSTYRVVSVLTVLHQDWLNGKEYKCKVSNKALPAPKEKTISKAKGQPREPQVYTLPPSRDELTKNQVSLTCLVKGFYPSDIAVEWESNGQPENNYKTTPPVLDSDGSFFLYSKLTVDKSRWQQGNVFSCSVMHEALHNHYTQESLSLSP
light: B1 light
notes: as for B2
B5: GpH7-B3 variant P331G / GpL16-k0 (antibody, human IgG1)
heavy: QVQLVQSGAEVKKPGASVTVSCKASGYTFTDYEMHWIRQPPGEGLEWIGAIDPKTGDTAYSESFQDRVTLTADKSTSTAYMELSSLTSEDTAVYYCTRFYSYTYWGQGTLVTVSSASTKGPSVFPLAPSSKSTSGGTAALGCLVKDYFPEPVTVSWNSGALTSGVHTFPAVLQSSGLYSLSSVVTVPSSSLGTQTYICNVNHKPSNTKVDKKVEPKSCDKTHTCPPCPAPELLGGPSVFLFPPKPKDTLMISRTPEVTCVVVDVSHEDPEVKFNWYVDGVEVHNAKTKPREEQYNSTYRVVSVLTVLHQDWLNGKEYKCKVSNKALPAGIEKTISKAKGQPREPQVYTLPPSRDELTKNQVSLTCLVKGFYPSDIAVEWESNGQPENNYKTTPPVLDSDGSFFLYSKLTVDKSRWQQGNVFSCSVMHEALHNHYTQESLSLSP
light: B1 light
notes: as for B2
B6: IL6R-2B172/IL6R-L (antibody, human IgG1, name in EU numbering)
heavy: QVQLQESGPGLVKPSETLSLTCAVSGHSISHDHAWSWVRQPPGEGLEWIGFISYSGITNYNPSLQGRVTISRDNSKNTLYLQMNSLRAEDTAVYYCARSLARTTAMDYWGEGTLVTVSSASTKGPSVFPLAPSSKSTSGGTAALGCLVKDYFPEPVTVSWNSGALTSGVHTFPAVLQSSGLYSLSSVVTVPSSSLGTQTYICNVNHKPSNTKVDKKVEPKSCDKTHTCPPCPAPELLGGDSVFLFPPKPKDTLMISRTPEVTCVVVDVSHEDPEVKFNWYVDGVEVHNAKTKPREEQYNSTYRVVSVLTVLHQDWLNGKEYKCKMSNKALPAPIEKTISKAKGQPREPQVYTLPPSRDELTKNQVSLTCLVKGFYPSDIAVEWESNGQPENNYKTTPPVLDSDGSFFLYSKLTVDKSRWQQGNVFSCSVMHEALHNHYTQESLSLSP
light: DIQMTQSPSSLSASVGDRVTITCRASQDISSYLNWYQQKPGKAPKLLIYYTSRLHSGVPSRFSGSGSGTDFTFTISSLQPEDIATYYCQQGNTLPYTFGQGTKVEIK
B7: IL6R-BP100/IL6R-L (antibody, human IgG1, name in EU numbering)
heavy: B6 heavy with S269A, M325V
light: B6 light
B8: IL6R-BP107/IL6R-L (antibody, human IgG1, name in EU numbering)
heavy: B6 heavy with H270E, M325V
light: B6 light
B9: IL6R-BP136/IL6R-L (antibody, human IgG1, name in EU numbering)
heavy: B6 heavy with M325V, K328A
light: B6 light
B10: IL6R-BP116/IL6R-L (antibody, human IgG1, name in EU numbering)
heavy: B6 heavy with M325V, K328T
light: B6 light
B11: IL6R-BP119/IL6R-L (antibody, human IgG1, name in EU numbering)
heavy: B6 heavy with M325V, K328M
light: B6 light
B12: IL6R-BP121/IL6R-L (antibody, human IgG1, name in EU numbering)
heavy: B6 heavy with M325V, K328Q
light: B6 light
B13: IL6R-BP142/IL6R-L (antibody, human IgG1, name in EU numbering)
heavy: B6 heavy with M325V, K328N
light: B6 light
B14: IL6R-BP911/IL6R-L (antibody, human IgG1, name in EU numbering)
heavy: B6 heavy with M325V, A332K
light: B6 light
B15: IL6R-G1d/IL6R-L (antibody, human IgG1)
heavy: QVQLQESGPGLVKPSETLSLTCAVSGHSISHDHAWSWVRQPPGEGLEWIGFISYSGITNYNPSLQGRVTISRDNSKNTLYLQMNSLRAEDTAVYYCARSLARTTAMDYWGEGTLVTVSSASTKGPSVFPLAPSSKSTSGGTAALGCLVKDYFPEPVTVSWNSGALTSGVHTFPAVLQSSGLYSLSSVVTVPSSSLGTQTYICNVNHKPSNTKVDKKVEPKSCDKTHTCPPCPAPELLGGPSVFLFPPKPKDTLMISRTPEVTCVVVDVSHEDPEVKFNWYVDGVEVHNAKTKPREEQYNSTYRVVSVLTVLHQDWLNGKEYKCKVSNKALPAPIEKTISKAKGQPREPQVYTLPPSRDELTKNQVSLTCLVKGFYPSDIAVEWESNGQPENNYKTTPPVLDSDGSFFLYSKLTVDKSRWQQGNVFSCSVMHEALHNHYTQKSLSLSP
light: B6 light
notes: Anti-human IL-6 receptor IgG1 with the G1d constant region (C-terminal Gly and Lys removed); also called IgG1
B16: IL6R-BP103/IL6R-L (antibody, human IgG1, name in EU numbering)
heavy: B6 heavy with S269V, M325V
light: B6 light
B17: IL6R-BP118/IL6R-L (antibody, human IgG1, name in EU numbering)
heavy: B6 heavy with M325V, K328S
light: B6 light
B18: IL6R-B3/IL6R-L (antibody, human IgG1)
heavy: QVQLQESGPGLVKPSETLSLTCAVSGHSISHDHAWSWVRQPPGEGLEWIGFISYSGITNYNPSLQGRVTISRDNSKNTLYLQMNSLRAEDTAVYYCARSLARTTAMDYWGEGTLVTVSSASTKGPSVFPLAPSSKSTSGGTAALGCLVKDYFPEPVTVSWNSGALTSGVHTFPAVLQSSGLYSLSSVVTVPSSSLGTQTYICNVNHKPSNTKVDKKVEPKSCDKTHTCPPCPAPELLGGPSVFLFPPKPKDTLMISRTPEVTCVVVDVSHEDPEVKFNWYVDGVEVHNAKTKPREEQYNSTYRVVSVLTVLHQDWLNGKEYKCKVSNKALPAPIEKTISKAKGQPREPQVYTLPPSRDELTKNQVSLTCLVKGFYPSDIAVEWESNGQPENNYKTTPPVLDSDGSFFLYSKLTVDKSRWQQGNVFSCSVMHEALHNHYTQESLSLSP
light: B6 light
notes: IL6R-G1d with K439E (EU numbering)
B19: IL6R-BP106/IL6R-L (antibody, human IgG1, name in EU numbering)
heavy: B6 heavy with H270D, M325V
light: B6 light
B20: IL6R-BP102/IL6R-L (antibody, human IgG1, name in EU numbering)
heavy: B6 heavy with S269Q, M325V
light: B6 light

Biological target: T1, human FcγRIIa(H) (allotype H131)
Test: SPR (Biacore), antibody captured, FcγR analyte, 25 C; normalised to captured antibody, GpH7-B3/GpL16-k0 = 100;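 note: antibodies held on sensor chips through immobilized antigen peptide, Protein A, Protein A/G or Protein L, with HBS-EP+ running buffer and FcγR in solution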
Method: (§1) Interaction between each modified antibody and Fcγ receptor prepared in the manner described above was analyzed using the BIACORE™ T100 surface plasmon resonance system (GE Healthcare), BIACORE™ T200 surface plasmon resonance system (GE Healthcare), BIACORE™ A100 surface plasmon resonance system or BIACORE™ 4000 surface plasmon resonance system. HBS-EP+(GE Healthcare) was used for the running buffer, and measurements were carried out at 25° C. The chips used were chips in which antigen peptides, Protein A (Thermo Scientific), Protein A/G (Thermo Scientific) or Protein L (ACTIGEN® protein (Alltech or BioVision) were immobilized on the Series S Sensor Chip CM5 (GE Healthcare) or Series S Sensor Chip CM4 (GE Healthcare) by amine coupling, or chips in which preliminarily biotinylated antigen peptides were allowed to interact and then immobilized on the Series S Sensor Chip SA (certified) (GE Healthcare). The target antibodies were captured on these sensor chips, Fcγ receptor diluted with the running buffer was allowed to interact, followed by measurement of the amount of bound antibody. The amounts bound were compared between antibodies. However, since the amount of Fcγ receptor bound depends on the amount of captured antibody, the values used for comparison were first corrected by dividing the amount of Fcγ receptor bound by the captured amount of each antibody. Through reaction with 10 mM glycine-HCl at pH 1.5, the sensor chips were regenerated by washing off antibody captured on the sensor chips and used repeatedly.
(§2) Binding strength was evaluated according to the following method based on the results of analyzing the interaction with each FcγR. […] That value was then further multiplied by 100, and the resulting value was used as an indicator of relative binding activity to each FcγR.

| Binder | relative binding activity (parent antibody = 100) |
| --- | --- |
| B1 | 0 % of control |
| B2 | 25 % of control |
| B3 | 1 % of control |
| B4 | 59 % of control |

Biological target: T2, human FcγRIIa(R) (allotype R131)
Test: as above
Method: as §1, §2

| Binder | relative binding activity (parent antibody = 100) |
| --- | --- |
| B1 | -1 % of control |
| B2 | 42 % of control |
| B5 | 13 % of control |
| B4 | 12 % of control |

Biological target: T6, human FcγRIIIa(F) (allotype F158) (human, UniProt P08637 17-208, limits assumed)
T6 construct: also called hFcgRIIIa(F); FcgRIIIaF
Test: as above
Method: as §1, §2

T6 sequence (P08637 other isoform, or with tags, fused parts or gaps limits assumed): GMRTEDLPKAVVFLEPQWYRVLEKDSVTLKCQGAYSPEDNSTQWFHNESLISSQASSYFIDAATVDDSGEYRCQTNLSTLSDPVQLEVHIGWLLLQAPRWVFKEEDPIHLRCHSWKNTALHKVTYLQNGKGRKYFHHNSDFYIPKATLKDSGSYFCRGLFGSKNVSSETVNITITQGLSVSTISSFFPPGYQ

| Binder | relative binding activity (parent antibody = 100) |
| --- | --- |
| B1 | -1 % of control |
| B2 | 56 % of control |
| B3 | 4 % of control |

Biological target: T3, human FcγRIIb
Test: as above
Method: as §1, §2

| Binder | relative binding activity (parent antibody = 100) |
| --- | --- |
| B1 | -3 % of control |
| B2 | 39 % of control |
| B3 | 0 % of control |
| B4 | 27 % of control |

Biological target: T7, human FcγRIa (human, UniProt P12314 16-292, limits assumed)
T7 construct: Soluble analyte in SPR; also called hFcgRIa; FcgRIa
Test: as above
T7 sequence (P12314 16-292 limits assumed): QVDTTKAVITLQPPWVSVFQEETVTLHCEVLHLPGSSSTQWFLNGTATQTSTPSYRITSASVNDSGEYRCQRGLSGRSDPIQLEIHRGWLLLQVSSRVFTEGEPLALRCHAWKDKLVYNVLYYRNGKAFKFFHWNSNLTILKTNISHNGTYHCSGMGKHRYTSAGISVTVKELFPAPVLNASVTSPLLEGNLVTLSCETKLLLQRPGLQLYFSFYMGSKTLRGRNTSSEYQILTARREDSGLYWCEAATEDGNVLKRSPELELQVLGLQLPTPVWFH
Method: as §1, §2

| Binder | relative binding activity (parent antibody = 100) |
| --- | --- |
| B1 | 50 % of control |
| B2 | 87 % of control |
| B5 | 88 % of control |
| B3 | 92 % of control |
| B4 | 77 % of control |

Biological target: T8, human FcγRIa (human, UniProt P12314 16-292, limits assumed)
T8 construct: also called FcyRIa; CD64
Test: SPR (Biacore), FcγR over captured antibody; binding amount relative to IL6R-BF648/IL6R-L x100
T8 sequence (P12314 16-292 limits assumed): as above

| Binder | relative binding |
| --- | --- |
| B6 | 140 % of IL6R-BF648/IL6R-L |
| B7 | 121 % of IL6R-BF648/IL6R-L |
| B8 | 123 % of IL6R-BF648/IL6R-L |
| B9 | 117 % of IL6R-BF648/IL6R-L |
| B10 | 110 % of IL6R-BF648/IL6R-L |
| B11 | 117 % of IL6R-BF648/IL6R-L |
| B12 | 118 % of IL6R-BF648/IL6R-L |
| B13 | 98 % of IL6R-BF648/IL6R-L |
| B14 | 52 % of IL6R-BF648/IL6R-L |
| B15 | 140 % of IL6R-BF648/IL6R-L |
| B16 | 56 % of IL6R-BF648/IL6R-L |
| B17 | 101 % of IL6R-BF648/IL6R-L |
| B18 | 145 % of IL6R-BF648/IL6R-L |
| B19 | 127 % of IL6R-BF648/IL6R-L |
| B20 | 104 % of IL6R-BF648/IL6R-L |

Biological target: T4, human FcγRIIb
Test: as above

| Binder | relative binding |
| --- | --- |
| B6 | 132 % of IL6R-BF648/IL6R-L |
| B7 | 110 % of IL6R-BF648/IL6R-L |
| B8 | 118 % of IL6R-BF648/IL6R-L |
| B9 | 119 % of IL6R-BF648/IL6R-L |
| B10 | 108 % of IL6R-BF648/IL6R-L |
| B11 | 110 % of IL6R-BF648/IL6R-L |
| B12 | 113 % of IL6R-BF648/IL6R-L |
| B13 | 106 % of IL6R-BF648/IL6R-L |
| B14 | 119 % of IL6R-BF648/IL6R-L |
| B15 | 62 % of IL6R-BF648/IL6R-L |
| B16 | 107 % of IL6R-BF648/IL6R-L |
| B17 | 104 % of IL6R-BF648/IL6R-L |
| B18 | 58 % of IL6R-BF648/IL6R-L |
| B19 | 116 % of IL6R-BF648/IL6R-L |
| B20 | 106 % of IL6R-BF648/IL6R-L |

Biological target: T5, human FcγRIIa type H
Test: as above

| Binder | relative binding |
| --- | --- |
| B6 | 179 % of IL6R-BF648/IL6R-L |
| B7 | 128 % of IL6R-BF648/IL6R-L |
| B8 | 114 % of IL6R-BF648/IL6R-L |
| B9 | 103 % of IL6R-BF648/IL6R-L |
| B10 | 110 % of IL6R-BF648/IL6R-L |
| B11 | 133 % of IL6R-BF648/IL6R-L |
| B12 | 135 % of IL6R-BF648/IL6R-L |
| B13 | 97 % of IL6R-BF648/IL6R-L |
| B14 | 108 % of IL6R-BF648/IL6R-L |
| B15 | 1670 % of IL6R-BF648/IL6R-L |
| B16 | 69 % of IL6R-BF648/IL6R-L |
| B17 | 128 % of IL6R-BF648/IL6R-L |
| B18 | 1600 % of IL6R-BF648/IL6R-L |
| B19 | 110 % of IL6R-BF648/IL6R-L |
| B20 | 66 % of IL6R-BF648/IL6R-L |

Biological target: T9, human FcγRIIIa type V (human, UniProt P08637 17-208, limits assumed)
T9 construct: also called FcyRIIIa; FcγRIIIaV
Test: as above

T9 sequence (P08637 other isoform, or with tags, fused parts or gaps limits assumed): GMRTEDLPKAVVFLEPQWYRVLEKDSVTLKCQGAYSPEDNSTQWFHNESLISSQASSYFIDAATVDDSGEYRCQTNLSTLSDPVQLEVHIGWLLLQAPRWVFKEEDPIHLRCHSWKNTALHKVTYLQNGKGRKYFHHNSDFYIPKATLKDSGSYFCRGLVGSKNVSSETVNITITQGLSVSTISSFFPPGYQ

| Binder | relative binding |
| --- | --- |
| B6 | 144 % of IL6R-BF648/IL6R-L |
| B7 | 138 % of IL6R-BF648/IL6R-L |
| B8 | 129 % of IL6R-BF648/IL6R-L |
| B9 | 102 % of IL6R-BF648/IL6R-L |
| B10 | 114 % of IL6R-BF648/IL6R-L |
| B11 | 145 % of IL6R-BF648/IL6R-L |
| B12 | 157 % of IL6R-BF648/IL6R-L |
| B13 | 102 % of IL6R-BF648/IL6R-L |
| B14 | 120 % of IL6R-BF648/IL6R-L |
| B15 | 3350 % of IL6R-BF648/IL6R-L |
| B16 | 77 % of IL6R-BF648/IL6R-L |
| B17 | 144 % of IL6R-BF648/IL6R-L |
| B18 | 3260 % of IL6R-BF648/IL6R-L |
| B19 | 127 % of IL6R-BF648/IL6R-L |
| B20 | 86 % of IL6R-BF648/IL6R-L |
